{
  "source": "patent US11932673B2",
  "about": "“Sodium channel inhibitors” (priority 2017, dated 2024)",
  "key": {"trypsin [1]": {"system": "trypsin", "test": "Phage TRF binding assay of KnotBody phage on immobilised biotinylated trypsin", "experimental": "Phage display technology facilitates isolation of binders to any given target from large combinatorial repertoires based on proteins and peptides that can be presented on the surface of filamentous phage^105. In order to isolate functional knottin-antibody fusions from the KnotBody libraries multiple rounds of phage display selections on trypsin (cognate antigen for the EETI-II donor) were carried out. Phage particles were prepared by rescuing KnotBody libraries using trypsin cleavable helper phage^102,106 Two rounds of phage display selections were performed on 10 μg/ml biotinylated trypsin immobilised on Streptavidin (for Round-1) or Neutravidin (for round-2) coated Maxisorp™ immunotubes (Thermo Scientific, Cat No. 444202). In both rounds of selection, phage libraries were pre-incubated with streptavidin coated paramagnetic beads (Thermo Fisher Scientific, Cat. No. 11205D). These beads were removed prior to the addition the phage to the antigen tubes to limit the streptavidin binders entering the selection. Polyclonal phage preparations from round-2 selection outputs were analysed for trypsin binding using a time resolved fluorescence (TRF) binding assay. In this assay, polyclonal phage binding to biotinylated trypsin immobilised on neutravidin (Thermo Fisher Scientific, Cat. No 31000) coated Maxisorp™ plates (Thermo Scientific, Cat. No. 437111) was detected using a mouse anti-M13 antibody (GE Healthcare, Cat. No. 27-9420-01) followed by europium conjugated anti-mouse antibody (Perkin Elmer, Cat. No. AD0124).\nIn order to identify monoclonal KnotBodies with desired binding characteristics, 94 individual clones derived from 2 rounds of selection using EETI-II CDR1 or CDR2 libraries were picked into 96 well culture plates and phage were prepared from each clone. Methods for screening by monoclonal phage ELISA are known in the art^107. […] Clones with >3× binding signal above background were picked as positive clones and sequenced to identify unique clones. 14 and 42 unique binders were identified from EETI-II CDR1 and EETI-II CDR2 libraries respectively (Table 1). 18 binders from the EETI-II CDR2 library and 3 binders from the EETI-II-CDR1 library were chosen for further characterisation based on their VL and linker sequence diversity. These binders were assigned new clone identification numbers (Table 2). […] In order to confirm that the loss of trypsin binding was not due to reduced expression or display of pIII fusion phage was prepared from 11 (randomly chosen) KnotBodies and their GlyAla variants were analysed on a western blot using an antibody which recognises the product of gene 3 (pIII) using an anti-pIII antibody (MoBiTec GmbH) (FIG. 6)."}, "LOX-1": {"target": "LOX-1 (Homo sapiens, UniProt P78380)", "test": "Phage TRF binding assay of adhiron-antibody fusions on LOX-1", "details": "monoclonal phage; LOX-1 directly immobilised; non-specific binding checked on cMET-FC, GAS6-CD4, FGFR4-CD4, UPA, B-gal", "experimental": "In order to test the functionality of these adhiron-antibody fusions, monoclonal phage prepared from each clone was assessed for binding to LOX-1 in a TRF binding assay. In this assay, LOX-1 (immobilised directly on Maxisorp™ plates) binding of phage displaying adhiron-antibody fusion was detected using a mouse anti-M13 antibody (GE Healthcare) followed by europium conjugated anti-mouse antibody (Perkin Elmer). Parent KnotBodies KB_A07 and KB_A12 (EETI-II fusions) were included as controls. Proteins cMET-FC, GAS6-CD4, FGFR4-CD4, UPA and B-gal were used to examine non-specific binding."}, "huASIC1a": {"target": "T1, huASIC1a (Homo sapiens, UniProt P78348)", "T1 sequence (P78348 whole entry, looked up)": "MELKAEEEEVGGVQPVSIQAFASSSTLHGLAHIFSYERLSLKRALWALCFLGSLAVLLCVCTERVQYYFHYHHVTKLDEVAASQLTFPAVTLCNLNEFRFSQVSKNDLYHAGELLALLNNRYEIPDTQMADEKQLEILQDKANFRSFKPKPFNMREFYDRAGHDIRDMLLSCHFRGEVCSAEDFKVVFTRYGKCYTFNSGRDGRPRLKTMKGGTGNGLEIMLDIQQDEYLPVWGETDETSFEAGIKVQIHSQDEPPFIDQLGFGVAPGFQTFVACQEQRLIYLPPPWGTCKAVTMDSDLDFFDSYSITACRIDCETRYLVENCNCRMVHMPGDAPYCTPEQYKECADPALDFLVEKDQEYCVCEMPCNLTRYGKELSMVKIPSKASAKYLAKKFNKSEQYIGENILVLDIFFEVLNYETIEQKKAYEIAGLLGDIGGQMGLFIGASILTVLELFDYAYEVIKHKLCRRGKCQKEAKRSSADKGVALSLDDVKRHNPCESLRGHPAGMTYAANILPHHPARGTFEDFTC", "test": "QPatch automated whole-cell patch-clamp on HEK293 cells stably expressing huASIC1a", "type": "cell-based", "details": "pH 6.0 activation after 15-20 min pre-incubation; concentration μM: KB_A07_PcTx1 6.6, KB_A12_PcTx1 5, KB_A12_Mba-1 3, KB_A12_Mba-2 2.3, KB_A07 6, KB_A12 3.3", "experimental": "Knottin Kv 1.3 and ASIC1a blockers expressed in the KnotBody format (see examples 6 and 7) were tested for their ability to inhibit the function of the ion channel targets. The effect of these KnotBodies on cells expressing the human Kv 1.3 (huKv1.3) or human ASIC1a channels was assessed using QPatch automated whole-cell patch-clamp electrophysiology (Sophion).\nTo functionally assess the ASIC1a KnotBodies, HEK293 cells stably expressing huASIC1a (Sophion) were analysed using a QPatch electrophysiology assay in the presence or absence of the KnotBody fusions (using KB_A12 as a recipient and replacing the original EETI-II donor as shown in Table 8). The “parental” KB_A12 with the EETI-II donor was used as a negative control. Internal and external physiological solutions were freshly prepared prior to the assay. […]\nAt the end of each KnotBody incubation and subsequent ASIC1a current activation, a full blocking concentration (300 nM) of the ASIC1a knottin inhibitor PcTx1 (positive control) was perfused onto the cell recording and a final activating pH 6.0 external solution was applied. The percentage remaining signal between activating pH 6.0 baseline (i.e. pre-KnotBody) and post-KnotBody incubation was determined."}, "trypsin [2]": {"system": "trypsin", "test": "TRF binding assay of purified KnotBody Fabs on biotinylated trypsin"}, "human Nav1.7": {"target": "human Nav1.7 (Homo sapiens, UniProt Q15858)", "sequence (Q15858 other isoform, or with tags, fused parts or gaps)": "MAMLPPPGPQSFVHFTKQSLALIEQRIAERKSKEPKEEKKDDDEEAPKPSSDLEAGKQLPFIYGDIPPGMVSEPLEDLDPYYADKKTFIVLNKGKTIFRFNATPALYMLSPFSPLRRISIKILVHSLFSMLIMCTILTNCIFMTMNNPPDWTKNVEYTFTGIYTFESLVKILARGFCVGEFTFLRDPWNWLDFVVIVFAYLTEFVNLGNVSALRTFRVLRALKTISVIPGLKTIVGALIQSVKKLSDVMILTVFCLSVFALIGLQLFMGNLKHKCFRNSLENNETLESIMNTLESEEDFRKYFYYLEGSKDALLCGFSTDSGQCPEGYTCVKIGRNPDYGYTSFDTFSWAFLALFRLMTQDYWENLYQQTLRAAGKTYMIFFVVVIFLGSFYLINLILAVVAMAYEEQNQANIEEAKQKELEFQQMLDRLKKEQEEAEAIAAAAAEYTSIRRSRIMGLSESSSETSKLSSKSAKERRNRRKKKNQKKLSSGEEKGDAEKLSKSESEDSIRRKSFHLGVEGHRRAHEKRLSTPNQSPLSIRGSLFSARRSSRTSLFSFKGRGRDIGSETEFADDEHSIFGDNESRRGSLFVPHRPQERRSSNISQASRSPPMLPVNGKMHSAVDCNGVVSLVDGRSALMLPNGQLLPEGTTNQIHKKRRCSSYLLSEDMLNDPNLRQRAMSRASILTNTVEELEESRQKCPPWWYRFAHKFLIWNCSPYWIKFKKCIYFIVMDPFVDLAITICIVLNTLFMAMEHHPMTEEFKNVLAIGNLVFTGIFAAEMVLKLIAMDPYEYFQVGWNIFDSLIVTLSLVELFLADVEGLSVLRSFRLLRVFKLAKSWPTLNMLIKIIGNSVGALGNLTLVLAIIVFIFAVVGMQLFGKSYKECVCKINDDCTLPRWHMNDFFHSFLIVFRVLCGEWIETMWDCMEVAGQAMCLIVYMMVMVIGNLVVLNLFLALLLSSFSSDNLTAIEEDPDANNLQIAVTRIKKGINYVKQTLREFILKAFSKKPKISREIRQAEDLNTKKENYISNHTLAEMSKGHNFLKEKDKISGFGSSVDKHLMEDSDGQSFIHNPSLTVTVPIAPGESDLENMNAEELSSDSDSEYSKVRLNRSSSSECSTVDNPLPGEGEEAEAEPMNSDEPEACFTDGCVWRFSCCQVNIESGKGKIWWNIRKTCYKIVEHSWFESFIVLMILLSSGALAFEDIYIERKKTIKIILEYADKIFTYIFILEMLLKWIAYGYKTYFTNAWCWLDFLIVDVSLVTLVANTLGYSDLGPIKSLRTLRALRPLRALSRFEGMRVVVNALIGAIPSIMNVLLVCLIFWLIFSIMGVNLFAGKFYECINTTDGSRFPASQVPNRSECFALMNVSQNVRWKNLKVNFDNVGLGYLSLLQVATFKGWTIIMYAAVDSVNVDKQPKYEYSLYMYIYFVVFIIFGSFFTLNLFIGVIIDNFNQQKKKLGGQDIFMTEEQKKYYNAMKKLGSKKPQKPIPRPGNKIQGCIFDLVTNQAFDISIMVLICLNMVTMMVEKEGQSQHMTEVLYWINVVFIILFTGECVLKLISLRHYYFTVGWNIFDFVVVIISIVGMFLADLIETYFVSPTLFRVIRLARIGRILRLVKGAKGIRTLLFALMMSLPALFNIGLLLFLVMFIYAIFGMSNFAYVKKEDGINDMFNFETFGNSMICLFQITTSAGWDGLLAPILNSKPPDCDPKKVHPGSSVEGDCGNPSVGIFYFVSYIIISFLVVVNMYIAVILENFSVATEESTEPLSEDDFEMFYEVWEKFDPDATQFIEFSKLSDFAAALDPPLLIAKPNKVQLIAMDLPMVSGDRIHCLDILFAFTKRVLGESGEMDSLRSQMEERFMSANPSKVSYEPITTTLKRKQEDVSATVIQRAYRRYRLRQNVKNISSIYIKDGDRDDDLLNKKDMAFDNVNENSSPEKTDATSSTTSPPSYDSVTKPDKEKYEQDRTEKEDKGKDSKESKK", "test": "QPatch patch-clamp on CHO cells stably expressing human Nav1.7, single application (Example 19)", "type": "cell-based", "experimental": "The effect of these KnotBodies on cells expressing human Nav1.7 (huNav1.7) channel was assessed using QPatch automated patch-clamp platform (Sophion). For the testing of Nav1.7 ion channel currents, CHO cells stably expressing human Nav1.7 (GenBank accession number NM 002977; cell line catalogue number CT6003, Charles River Discovery, Cleveland, USA) were subjected to the QPatch electrophysiology assay in the presence or absence of the KnotBody fusions or the antibody isotypes (negative controls). Internal and external physiological solutions were freshly prepared prior to the assay. The extracellular solution contained 145 mM NaCl, 4 mM KCl, 2 mM CaCl2, 1 mM MgCl2, 10 mM HEPES and 10 mM glucose; the pH was adjusted to 7.4 with NaOH; the osmolarity was ˜305 mOsm/L. The intracellular solution contained: KF (120 mM), KCl (20 mM), HEPES (10 mM) EGTA (10 mM); the pH was adjusted to 7.2 with KOH; osmolarity was ˜300 mOsm/L.\nA series of depolarising voltage (channel activating) pulses were used to monitor the channel currents upon adding control (extracellular solution) to define a control baseline of current activity. To these measured control channel currents KnotBody or parental antibody isotypes (control molecules) were applied to the external bathing solution. The parental KnotBody KB_A12 (with trypsin inhibitor knottin EETI-II at CDR2) were used as test molecule isotype controls for the testing. […] The elicited, maximum outward current values measured during the −10 mV activating step for each solution period (a control, baseline level of current was determined at 10 minutes after application of the control external recording solution and a test level of current was determined after 20 minutes of application of KnotBody or its isotype) and average inhibition was determined between the current from the 10 minute baseline control current and the subsequent 20 minute KnotBody application. […] The average inhibition values (with external control reduction subtracted) for KnotBodies and isotypes was calculated."}},
  "data": [
    {"molecule": "KB_A07: EETI-II VL CDR2 KnotBody, D1A12 VH, VL SEQ ID NO: 136/372; parental/isotype control (antibody, V domains shown) VH: EVQLVESGGGLVRPGGSLRLSCAASGFTFSSYAMSWVRQAPGKGLEWVSAISGSGGSTYYADSVKGRFTISRDNTKNSLYLQMTSLRADDTAFYYCVKDFGPGYGTGWFDYWGPGTLVTVSS VL: DIQMTQSPSSLSASVGDRVTITCRASQSISSYLNWYQQKPGKAPKLLIYAAGVCPRILMRCKQDSDCLAGCVCGPNGFCGSRSGVPSRFSGSGSGTDFTLTISSLQPEDFATYYCQQGASPPYTFGQGTKVEIKR", "values": [
      {"measurement": "% reduction in binding signal", "setting": "trypsin [1]; […], monoclonal phage, streptavidin coated plates", "value": 98, "unit": "%"},
      {"measurement": "Tryspin binding signal (FU)", "setting": "trypsin [1]; monoclonal phage supernatant, biotinylated trypsin on neutravidin coated plates, TRF", "value": 21448, "unit": "FU"},
      {"measurement": "binding to LOX-1", "setting": "LOX-1", "value": "no detectable binding to the LOX-1"},
      {"measurement": "% current remaining", "setting": "huASIC1a", "value": 70.9, "unit": "%"},
      {"measurement": "TRF signal for 0.6 ug/mL Fab", "setting": "trypsin [2]; KnotBody Fab 0.6 ug/mL, background (no Fab) 431", "value": 107814},
      {"measurement": "TRF signal for 2.4 ug/mL Fab", "setting": "trypsin [2]; KnotBody Fab 2.4 ug/mL, background (no Fab) 406", "value": 201003},
      {"measurement": "TRF signal for 10 ug/mL Fab", "setting": "trypsin [2]; KnotBody Fab 10 ug/mL, background (no Fab) 420", "value": 226082}
    ]},
    {"molecule": "KB_A12_ProTx-III Gly (antibody, V domains shown) VH: EVQLVESGGGLVRPGGSLRLSCAASGFTFSSYAMSWVRQAPGKGLEWVSAISGSGGSTYYADSVKGRFTISRDNTKNSLYLQMTSLRADDTAFYYCVKDFGPGYGTGWFDYWGPGTLVTVSS VL: QSVLTQPPSVSEAPRQRVTITCSGSSSNIGNNAVNWYQQLPGKAPKLLIYAAGRDCLKFGWKCNPRNDKCCSGLKCGSNHNWCKLHIGANSGVSDRFSAAKSGTSASLAINGLRSEDEADYYCAAWDDSLNGYVFGTGTKLTVLG", "values": [
      {"measurement": "Mean % inhibition of Nav1.7 currents", "setting": "human Nav1.7; concentration tested 22.3 μM", "value": 26.6, "unit": "%"}
    ]},
    {"molecule": "KB_A12_ProTx-III 2M Gly: ProTx-III 2M Gly in VL CDR2 of KB_A12, IgG; Nav1.7 KnotBody (antibody, V domains shown) VH: EVQLVESGGGLVRPGGSLRLSCAASGFTFSSYAMSWVRQAPGKGLEWVSAISGSGGSTYYADSVKGRFTISRDNTKNSLYLQMTSLRADDTAFYYCVKDFGPGYGTGWFDYWGPGTLVTVSS VL: QSVLTQPPSVSEAPRQRVTITCSGSSSNIGNNAVNWYQQLPGKAPKLLIYAAGRGCLKFGWKCNPRNDKCCSGLKCGSNHNWCKWHIGANSGVSDRFSAAKSGTSASLAINGLRSEDEADYYCAAWDDSLNGYVFGTGTKLTVLG", "values": [
      {"measurement": "Mean % inhibition of Nav1.7 currents", "setting": "human Nav1.7; concentration tested 15.4 μM", "value": 63.5, "unit": "%"}
    ]}
  ]
}
